The target of data set [1] is glyceraldehyde-3-phosphate dehydrogenase.
For data set [2], the target named is human wild-type p53 protein, P04637.
Data set [3] deals with T1, mouse wild-type p53 protein, P02340.
T1 chain: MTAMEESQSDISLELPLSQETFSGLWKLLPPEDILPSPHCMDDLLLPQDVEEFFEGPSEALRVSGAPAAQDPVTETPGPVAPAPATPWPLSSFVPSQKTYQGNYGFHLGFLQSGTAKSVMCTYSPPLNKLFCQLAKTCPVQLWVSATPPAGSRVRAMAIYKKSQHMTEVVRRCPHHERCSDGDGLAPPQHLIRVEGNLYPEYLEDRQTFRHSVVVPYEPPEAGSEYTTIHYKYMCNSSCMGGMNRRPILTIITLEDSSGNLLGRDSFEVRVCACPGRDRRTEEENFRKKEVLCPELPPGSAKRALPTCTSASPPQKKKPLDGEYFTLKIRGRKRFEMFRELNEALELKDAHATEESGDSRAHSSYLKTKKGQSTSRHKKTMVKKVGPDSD

Sequence of human wild-type p53 protein, P04637 (P04637 whole entry, looked up): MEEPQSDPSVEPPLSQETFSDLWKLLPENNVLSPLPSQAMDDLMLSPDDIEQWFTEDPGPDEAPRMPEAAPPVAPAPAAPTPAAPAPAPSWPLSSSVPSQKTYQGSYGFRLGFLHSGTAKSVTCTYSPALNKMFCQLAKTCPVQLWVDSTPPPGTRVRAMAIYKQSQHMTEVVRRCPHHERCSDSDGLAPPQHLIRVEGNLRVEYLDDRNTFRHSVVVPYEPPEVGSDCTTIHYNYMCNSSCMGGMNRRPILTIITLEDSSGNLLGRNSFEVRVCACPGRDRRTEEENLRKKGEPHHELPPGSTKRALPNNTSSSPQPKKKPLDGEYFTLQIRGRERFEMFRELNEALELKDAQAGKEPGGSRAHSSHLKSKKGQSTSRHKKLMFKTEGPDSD

B1: bovine m-calpain (Sigma) (protein)
chain 1: AGIAAKLAKDREAAEGLGSHERAVKYLNQDYAALRDECLEAGALFQDPSFPALPSSLGFKELGPYSSKTRGIEWKRPTEICDNPQFITGGATRTDICQGALGDCWLLAAIASLTLNEEILARVVPLDQSFQENYAGIFHFQFWQYGEWVEVVVDDRLPTKDGELLFVHSAEGSEFWSALLEKAYAKINGCYEALSGGATTEGFEDFTGGIAEWYELRKAPPNLFRIIQKALQKGSLLGCSIDITSAADSEAITFQKLVKGHAYSVTGAEEVESRGSLQKLIRIRNPWGEVEWTGQWNDNCPNWNTVDPEVRETLTRQHEDGEFWMSFNDFLRHYSRLEICNLTPDTLTSDSYKKWKLTKMDGNWRRGSTAGGCRNYPNTFWMNPQYLIKLEEEDEDQEDGESGCTFLVGLIQKHRRRQRKMGEDMHTIGFGIYEVPEELTGQTNIHLSKKFFLTTRARERSDTFINLREVLNRFKLPPGEYIVVPSTFEPNKDGDFCIRVFSEKKADYQVVDDEIEANIDEIDISEDDIDDGFRRLFAQLAGEDAEISAFELQTILRRVLAKRQDIKSDGFSIETCKIMVDMLDSDGSGKLGLKEFYILWTKIQKYQKIYREIDVDRSGTMNSYEMRKALEEAGFKMPCQLHQVIVARFADDDLIIDFDNFVRCLIRLETLFRIFKQLDPENTGMIQLDLISWLSFSVL
chain 2: MFLVNSFLKGGGGGGGGGGLGGGLGNVLGGLISGAGGGGGGGGGGGGGGGGTAMRILGGVISAISEAAAQYNPEPVPPRTHYSNIEANESEEVRQFRRLFAQLAGDDMEVSATELMNILNKVVTRHPDLKTDGFGIDTCRSMVAVMDSDTTGKLGFEEFKYLWNNIKKWQAVYKQFDVDRSGTIGSSELPGAFEAAGFRLNEHLYNMIIRRYSDEGGNMDFDNFISCLVRLDAMFRAFKSLDKDGTGQIQVNIQEWLQLTMYS
For the protein B1, the “degradation of the protein in reticulocyte lysate with calcium and m-calpain” value (with dihydrofolate reductase; in data set [1]) was “The degradation resistance of other proteins such as dihydrofolate reductase or glyceraldehyde-3-phosphate dehydrogenase under the same experimental conditions” in each case. Further, the “degradation of the in vitro translated protein in reticulocyte lysate with calcium (electrophoresis)” value in data set [2] is “led to the rapid disappearance of the neosynthesized proteins and the appearance of proteolytic fragments”; in data set [3], “led to the rapid disappearance of the neosynthesized proteins and the appearance of proteolytic fragments”.

Source of the values: patent US20030060435.
